The values that follow come from the Human Domainome abundance scans (Beltran et al. 2025).

± gives the uncertainty stated by the source.

First the molecules themselves.
B1: Ras GTPase-activating protein 1, residues 281 to 341; numbered along this chain, P20936 (parent)
chain: RRRVRAILPYTKVPDTDEISFLKGDMFIVHNELEDGWMWVTNLRTDEQGLIVEDLVEEVGR

This series covers variants of B1. Kind of series: abundance fitness (aPCA) (normalised: wild type 0, dead -1); higher = more abundant; growth selection in yeast, the domain comes from the species named. The conditions noted are these: Homo sapiens.
For RRLVRAILPYTKVPDTDEISFLKGDMFIVHNELEDGWMWVTNLRTDEQGLIVEDLVEEVGR [R3L], the abundance fitness is -0.09 ± 0.028. Regarding RRRVRAILPYTKVPDTDMISFLKGDMFIVHNELEDGWMWVTNLRTDEQGLIVEDLVEEVGR [E18M], the abundance fitness was -0.42 ± 0.082. As for RRRVRAILPYTKVPDTDEISFLKGDMFIVHNELEDGWMWVTNLRTDEQGLIVEDLVETVGR [E58T], the figure is -0.023 ± 0.039. Regarding RRRVRAILPYTKVPDTDEISFLKGDMFIVHNELEDGWAWVTNLRTDEQGLIVEDLVEEVGR [M38A], the abundance fitness is -0.396 ± 0.036.

As for RRRVRAILPYTKVPDTDEISFLKGDMFIVHNELEDGWDWVTNLRTDEQGLIVEDLVEEVGR [M38D], the abundance fitness was -0.871 ± 0.055.

Take RRRVRAILPYTKVPDTDEISFLKGDMFIVHNELEDGWMWVTNLRTDEQGLIVEDLVEEEGR [V59E]: the abundance fitness stood at 0.011 ± 0.053. As for RRRVRAILPYTKVPDTDEISFLKGDMFIVTNELEDGWMWVTNLRTDEQGLIVEDLVEEVGR [H30T], the figure is -0.261 ± 0.037; as for RRRVRAILPYTKVPDTDEISFLKGDMFIVWNELEDGWMWVTNLRTDEQGLIVEDLVEEVGR [H30W], -0.153 ± 0.045. The figure for RRRVRAILPYTKVPDTDEISFLKGDMFIVDNELEDGWMWVTNLRTDEQGLIVEDLVEEVGR [H30D] is -0.122 ± 0.031. The figure for RRRVRAILPYTKVPDTDEISFLKGDMFIVHNELEDGWMTVTNLRTDEQGLIVEDLVEEVGR [W39T] is -0.26 ± 0.023. RRRVVAILPYTKVPDTDEISFLKGDMFIVHNELEDGWMWVTNLRTDEQGLIVEDLVEEVGR [R5V]: the abundance fitness was -0.007 ± 0.027.

Regarding RPRVRAILPYTKVPDTDEISFLKGDMFIVHNELEDGWMWVTNLRTDEQGLIVEDLVEEVGR [R2P], the abundance fitness was -0.189 ± 0.044.

Take RQRVRAILPYTKVPDTDEISFLKGDMFIVHNELEDGWMWVTNLRTDEQGLIVEDLVEEVGR [R2Q]: the abundance fitness is -0.172 ± 0.065. As for RRRVRAILPYTKVPDTDEISFLKGDMFIVHNELEDGWMWVTNLRTDEQGLIVEDIVEEVGR [L55I], the figure is -0.241 ± 0.034; as for RRRVRAILPYTKVPDTDEISFMKGDMFIVHNELEDGWMWVTNLRTDEQGLIVEDLVEEVGR [L22M], -0.054 ± 0.062. As for RRRVRAILPYTKVPDTDEISFLKMDMFIVHNELEDGWMWVTNLRTDEQGLIVEDLVEEVGR [G24M], the figure is -0.59 ± 0.078.

As to RRRVRAILPYTKVPDTDEISFLKRDMFIVHNELEDGWMWVTNLRTDEQGLIVEDLVEEVGR [G24R], the abundance fitness was -0.672 ± 0.039. On to RRRVRAILPYTKVPDTDEISFLKGDMFIVHNELEDGWMWVTNLRTDEQGLIAEDLVEEVGR [V52A], for which the abundance fitness was 0.072 ± 0.029. The figure for RRRVRAILPYTKVPDTDEISFLKGDMFIVHNELEDGWMWVTNLRTDEQGLIQEDLVEEVGR [V52Q] is 0.045 ± 0.056; for RRRVRAILPYTKVPDTDEISFLKGDMFIVHNELEDGWMWVTNLRTDERGLIVEDLVEEVGR [Q48R] it is -0.051 ± 0.03.

Take RRRVRAILPYTKVPDTDEISFLKGDMFYVHNELEDGWMWVTNLRTDEQGLIVEDLVEEVGR [I28Y]: the abundance fitness was -0.079 ± 0.022.

As for RRRVRAIMPYTKVPDTDEISFLKGDMFIVHNELEDGWMWVTNLRTDEQGLIVEDLVEEVGR [L8M], the abundance fitness turned out to be 0.044 ± 0.044. The figure for RRRVRAIDPYTKVPDTDEISFLKGDMFIVHNELEDGWMWVTNLRTDEQGLIVEDLVEEVGR [L8D] is -0.149 ± 0.033. As for RRRVRAILPYTKVPDVDEISFLKGDMFIVHNELEDGWMWVTNLRTDEQGLIVEDLVEEVGR [T16V], the figure is -0.894 ± 0.047; as for RRRVRAILPYTKVPDNDEISFLKGDMFIVHNELEDGWMWVTNLRTDEQGLIVEDLVEEVGR [T16N], -0.605 ± 0.037. The figure for RRRVRAILPYTKVPDTDEISTLKGDMFIVHNELEDGWMWVTNLRTDEQGLIVEDLVEEVGR [F21T] is -0.907 ± 0.038.

On to RRRVRAILPYTKVPDTDEISFLPGDMFIVHNELEDGWMWVTNLRTDEQGLIVEDLVEEVGR [K23P], for which the abundance fitness is -0.048 ± 0.034. As for RRRVRAILPYTKVPDTDEISFLIGDMFIVHNELEDGWMWVTNLRTDEQGLIVEDLVEEVGR [K23I], the figure is -0.148 ± 0.021; as for RRRVRAILPYTKVPDTDEISFLLGDMFIVHNELEDGWMWVTNLRTDEQGLIVEDLVEEVGR [K23L], -0.232 ± 0.027. As for RRRVRAILPYTKVPDTDEISFLNGDMFIVHNELEDGWMWVTNLRTDEQGLIVEDLVEEVGR [K23N], the figure is -0.246 ± 0.023; as for RRRVRAILPYTKVPDTDEISFLKGDMFIVHNELEDGWMWVTNLRTDEQTLIVEDLVEEVGR [G49T], -0.791 ± 0.06. As for RRRVRAILPYTKVPDTDEISFLKGDMFIVHNELEDGWMWVTNLRTDEQNLIVEDLVEEVGR [G49N], the figure is -0.836 ± 0.043; as for RRRVRAILPYTKVPDTDEISFLKGDMFIVHNELEDGWMWVTNLRTDEQVLIVEDLVEEVGR [G49V], -0.949 ± 0.049.

Take RRRVRAILPYHKVPDTDEISFLKGDMFIVHNELEDGWMWVTNLRTDEQGLIVEDLVEEVGR [T11H]: the abundance fitness is -0.129 ± 0.031.

Regarding RRRVRAILPYVKVPDTDEISFLKGDMFIVHNELEDGWMWVTNLRTDEQGLIVEDLVEEVGR [T11V], the abundance fitness was determined as 0.017 ± 0.029.

With RRRVRAILPYGKVPDTDEISFLKGDMFIVHNELEDGWMWVTNLRTDEQGLIVEDLVEEVGR [T11G], the abundance fitness was -0.416 ± 0.033. The figure for RRRVRAILPYTKVPDTDEISFLKGDMFIVHNELEDGWMWVTNLRTDEQGLIVEDLVEEVDR [G60D] is -0.063 ± 0.057; for RRRVRAILPYTKVPDTDEISFLKGDMFIVHNELEDGWMWVTNLRTDEQGLIVEDLVEEVHR [G60H] it is -0.054 ± 0.074.

For the variant RRRVRAILPYTKVPDTDEISFLKGDMFIVHNELEDGWMWVTNLRTDEQGLIVEDLVEEVER [G60E], the abundance fitness was 0.003 ± 0.25. As for RRRVRAILPYTKVPDTDEISFLKGDMFIVHKELEDGWMWVTNLRTDEQGLIVEDLVEEVGR [N31K], the figure is 0.034 ± 0.06; as for RRRVRAILPYTKVPDTDEISFLKGDMFIVHNELEDGWMWVTDLRTDEQGLIVEDLVEEVGR [N42D], -0.585 ± 0.032; as for NRRVRAILPYTKVPDTDEISFLKGDMFIVHNELEDGWMWVTNLRTDEQGLIVEDLVEEVGR [R1N], 0.063 ± 0.037. As for MRRVRAILPYTKVPDTDEISFLKGDMFIVHNELEDGWMWVTNLRTDEQGLIVEDLVEEVGR [R1M], the abundance fitness turned out to be 0.087 ± 0.074.
